Assay results from US20220112288A1 (published 2022).
Changes are numbered by the printed parent chain.

B1: 75110_08H11A (antibody, V domains shown)
VH: EVQLVESGGGLVQPGGSLRLSCAASGFTFSSYDMHWVRQATGKGLEWVSTIGTAGDTYYPGSVKGRFTISRENAKNSLYLQMNSLRAGDTAVYYCARGGYSYYGMDVWGQGTTVTVSS
VL: EIVLTQSPGTLSLSPGERATLSCGASQSVSSTYLAWYQQKPGQAPRLLIYGASSRATGIPDRFSGSGSGTDFTLTISRLEPEDFAVYYCQQFGSSPFTFGPGTKVDIK
notes: Tested as non-clonal hybridoma supernatant from AlivaMab Mouse Kappa mice, detected with anti-mouse Fc and anti-human Kappa
B2: 75110_10N21A (antibody, V domains shown)
VH: B1 VH with A40V, S101Y
VL: B1 VL with G24R, V29F, S30I, T32S, E80D, F92S, S94N, I107V
notes: as for B1
B3: 75110_14H13A (antibody, V domains shown)
VH: B1 VH with S31N, E72K, N83I, Y100D, S101Y
VL: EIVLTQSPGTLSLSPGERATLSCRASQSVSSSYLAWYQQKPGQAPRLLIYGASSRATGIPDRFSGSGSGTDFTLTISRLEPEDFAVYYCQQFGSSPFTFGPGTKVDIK
notes: as for B1
B4: 75110_08H06A (antibody, V domains shown)
VH: B1 VH with S31N, S101D
VL: B1 VL with G24R, V29I, S30T, T32I, Q38R, F92Y
notes: as for B1
B5: 75110_13C07A (antibody, V domains shown)
VH: B1 VH with G10V, S31N, I69L, N83H, G99A, S101G
VL: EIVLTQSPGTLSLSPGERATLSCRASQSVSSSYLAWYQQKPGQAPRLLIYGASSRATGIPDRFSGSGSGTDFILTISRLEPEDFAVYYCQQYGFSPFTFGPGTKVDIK
notes: as for B1
B6: 75110_10K21A (antibody, V domains shown)
VH: EVQLVESGGGLVQPGGSLRLSCAASGFTFSSYWMTWVRQAPGKGLEWVANIKQDGSEKYYVDSVKGRFTISRDNAKNSLYLQMNSLRAEDTAVYYCVRDRYDALDIWGQGTMVTVSS
VL: AIQMTQSPSSLSASVGDRVTITCRASQGIRNDLNWYQQKPGKAPKLLIYAASSLQSGVPSRFSGSGSGTDFTLTISSLQAEDFATYYCLKDYNYPYTFGQGTKLEIK
notes: as for B1
B7: 75110_01H18A (antibody, V domains shown)
VH: QVQLQQWGAGLLKPSETLSLTCAVYGGSFSGYYWSWIRQSPGKGLEWIGEINQSGSTNYNPSLKSRVTISVDTSKNQFSLKLSSVTAADTAVYYCARVINWFDSWGQGTLVTVSS
VL: DIQMTQSPSSVSASVGDRVTITCRASQGISSWLAWYQQKPGKAPKLLIYAASSFQSGVPSRFSGSGSGTDFTLTISSLQTEDFATYYCQQANSFPYTFGQGTRLEIK
notes: as for B1
B8: 75110_05G15A (antibody, V domains shown)
VH: QVQLQESGPGLVKPSQTLSLTCTVSGGSISSGGYFWSWIRQHPGKGLEWIGCIYYSGSTYYIPSLKSRVTISVDTSKNQFSLKLRSVTAADTAVYYCARDGYDYWYFDLWGRGTLVTVSS
VL: not shown
B9: 75110_05F19A (antibody, V domains shown)
VH: B1 VH with S31N, M34V, A40P, S101D, M105L
VL: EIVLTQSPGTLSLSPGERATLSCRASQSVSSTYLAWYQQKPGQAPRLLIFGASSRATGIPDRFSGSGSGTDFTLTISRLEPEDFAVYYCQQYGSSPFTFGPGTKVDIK
notes: Tested as antibody purified from AlivaMab Mouse hybridoma supernatant (captured by anti-mouse IgG Fc)
B10: 75110_05A11A (antibody, V domains shown)
VH: EVQLVESGGGLVKPGGSLTLSCAASGFTFSNTWMSWVRQAPGKGLEWVGRIKSKIDGGTTDYAAPVKGRFTISRDDSKNTLYLQMNSLKTEDTAVYYCTTSGTYSSGWGLFDYWGQGTLVTVSS
VL: DIQMTQSPSSLSASVGDRVTITCQASQDISNYLNWYQQKPGKAPKLLIYDTSNLEAGVPSRFSGSGSGTHFTLTISSLQPEDIATYYCQQYDNLPFTFGGGTRVEIK
notes: as for B9
B11: 75110_01C18A (antibody, V domains shown)
VH: EVQLVESGGGLIQPGGSLRLSCAASGFTVSSNYMNWVRQAPGKGLEWVSVIYAGDNTYSADSVKGRFTISRDNSNNTLCLQMNSLRAEDTAVYYCAREGGTTGAFDIWGQGTMVTVSS
VL: B7 VL with S30N, F54L, T80P, A91G, R103K
notes: as for B9
B12: 75110_04G02A (antibody, V domains shown)
VH: not shown
VL: DIVMTQSPDSLAVSLGERATINCKSSQSVLYSSNNKNYLAWYQQKPGQPPKLLFYWASARESGVPDRFSGSGSGTDFTLTISSLQAEDVALYYCQQYFGSFPTFGQGTKLEIK
notes: as for B9
B13: 75110_03I23A (antibody, V domains shown)
VH: QVQLQESGPGLVKPSETLSLTCTASGGSITSYYWNWIRQPAGKGLEWIGRIYTSGSTNYNPSLKSRVTMSVDTSKNQFSLKLSSVTAADTAVYYCARDPGYSDAFNIWGQGTMVTVSS
VL: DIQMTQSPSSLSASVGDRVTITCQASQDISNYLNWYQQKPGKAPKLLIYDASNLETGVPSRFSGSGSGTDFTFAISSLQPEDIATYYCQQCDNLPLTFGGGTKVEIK
notes: as for B9
B14: 75110_14P05A (antibody, V domains shown)
VH: B1 VH with M34V, Y100F, S101Y
VL: B1 VL with G24R, T32S, A44T, Y87F, F92S, I107V
notes: Tested as AlivaMab Mouse (AMM) antibody purified from hybridoma supernatant and captured through its mouse IgG Fc; also called ADS75110 purified AMM Ab 75110_14P05A; Sib1.10
B15: 75110_14P08A (antibody, V domains shown)
VH: QVQLQESGPGLVKSSETLSLTCTDSGDSIRSYYWNWIRQPAGKGLEWIGRIYASGSTNYNPSLKSRVIMSADTSKNRFSLKLSSVTAADTAVYYCARDGGVGDSLDYWGQGTLVTVSS
VL: DIVMTQTPLSLPVTPGEPASISCRSSQSLLDSDDGNTYLDWYLQKPGQSPQLLIYTLSYRASGVPDRFSGSGSGTDFTLKISRVEAEDVGVYYCMQRIEFPFTFGPGTKVDIK
notes: Tested as AlivaMab Mouse (AMM) antibody purified from hybridoma supernatant and captured through its mouse IgG Fc; also called ADS75110 purified AMM Ab 75110_14P08A; Sib8.2

biological target: T1, human CD4 on cells (SKW3 cells; human PBMCs) (human, UniProt P01730 26-458); test: FACS confirmation, supernatant on human PBMCs, anti-mFc 647
T1 construct: whole, on cells; The SKW3 CD4 knockout cells served as the negative cell line; also called hCD4

Row | Binder | PBMCs CD4+ percent bound of viable [%]
1 | B1 | 31
2 | B2 | 33
3 | B3 | 29
4 | B4 | 30
5 | B5 | 35
6 | B6 | 32
7 | B7 | 32

biological target: T2, Rhesus macaque CD4-HIS (Acro Biosystems, Cat. CD4-C52H7) (rhesus macaque, UniProt P16003 26-390); test: BLI Octet, mAb on anti-mouse Fc sensor, rhesus CD4-HIS 25-100 nM
T2 construct: Bought reagent; also called Rhesus CD4; rhesus CD4-HIS; not shown: His tag
T2 sequence (P16003 26-390 limits assumed): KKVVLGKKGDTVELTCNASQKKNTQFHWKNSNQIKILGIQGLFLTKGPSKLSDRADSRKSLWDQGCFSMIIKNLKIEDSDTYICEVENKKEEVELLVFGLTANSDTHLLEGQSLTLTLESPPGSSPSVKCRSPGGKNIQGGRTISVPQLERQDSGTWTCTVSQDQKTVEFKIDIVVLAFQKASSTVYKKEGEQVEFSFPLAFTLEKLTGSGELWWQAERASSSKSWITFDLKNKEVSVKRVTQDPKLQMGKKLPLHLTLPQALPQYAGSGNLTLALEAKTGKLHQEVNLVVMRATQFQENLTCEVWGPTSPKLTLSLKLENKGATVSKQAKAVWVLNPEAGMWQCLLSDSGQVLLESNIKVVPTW

Row | binding result | Binder
8 | no binding (tested: 100 nM) | B8
9 | no binding (tested: 100 nM) | B9
10 | no binding (tested: 100 nM) | B10
11 | no binding (tested: 100 nM) | B11
12 | no binding (tested: 100 nM) | B12
13 | no binding (tested: 100 nM) | B13

biological target: T1, human CD4 on cells (SKW3 cells; human …); test: FACS confirmation, supernatant on human PBMCs, anti-mFc 647, CD4+ gate

Row | PBMCs CD4+ gate RL1 Binding | Binder
14 | 246000 | B1
15 | 179000 | B2
16 | 292000 | B3
17 | 225000 | B4
18 | 303000 | B5
19 | 224000 | B6
20 | 263000 | B7

biological target: T1, human CD4 on cells (SKW3 cells; human …); test: FACS confirmation, supernatant on SKW3 WT cells, anti-mFc 647; background gMFI 3300

Row | gMFI, SKW3 WT anti-mFc 647 [gMFI] | Binder
21 | 18600 | B1
22 | 13000 | B2
23 | 22000 | B3
24 | 23000 | B4
25 | 23100 | B5
26 | 19200 | B6
27 | 19000 | B7

biological target: T1, human CD4 on cells (SKW3 cells; human …); test: FACS confirmation, supernatant on SKW3 WT cells, anti-hu Kappa FITC; background gMFI 2500

Row | gMFI, SKW3 WT anti-hu Kappa FITC [gMFI] | Binder
28 | 5230 | B1
29 | 4060 | B2
30 | 6010 | B3
31 | 6270 | B4
32 | 5720 | B5
33 | 5850 | B6
34 | 4930 | B7

biological target: T1, human CD4 on cells (SKW3 cells; human …); test: FACS primary screen, non-clonal supernatant; SKW3 vs SKW3 CD4 KO cells, anti-mouse Fc 647 detection

Row | SKW3 WT vs KO, anti-mFc-647 (ratio) | Binder
35 | 2.8 | B1
36 | 3.1 | B2
37 | 4.8 | B3
38 | 3 | B4
39 | 3.1 | B5
40 | 2.6 | B6
41 | 3.6 | B7

biological target: T1, human CD4 on cells (SKW3 cells; human …); test: FACS binning on SKW3 cells after supernatant; competitor OKT4-A488; background 2163, max binding 8200

Row | OKT4 A488 signal (FACS binning) | Binder
42 | 9770 | B1
43 | 9090 | B2
44 | 12700 | B3
45 | 10400 | B4
46 | 9590 | B5
47 | 9980 | B6
48 | 9840 | B7

biological target: T1, human CD4 on cells (SKW3 cells; human …); test: FACS primary screen, non-clonal supernatant; SKW3 vs SKW3 CD4 KO cells, anti-human Kappa FITC detection

Row | SKW3 WT vs KO, anti-hKappa-FITC (ratio) | Binder
49 | 1.6 | B1
50 | 1.4 | B2
51 | 1.9 | B3
52 | 1.6 | B4
53 | 1.6 | B5
54 | 1.7 | B6
55 | 1.6 | B7

biological target: T1, human CD4 on cells (SKW3 cells; human …); test: FACS binning on SKW3 cells after supernatant; competitor RPA-T4-PE-Dazzle 594; background 783, max binding 15000

Row | RPA-T4-PE-Dazzle 594 signal (FACS binning) | Binder
56 | 3090 | B1
57 | 6880 | B2
58 | 1660 | B3
59 | 2480 | B4
60 | 2510 | B5
61 | 2590 | B6
62 | 2830 | B7

biological target: T3, huCD4-HIS (human, UniProt P01730 26-390, limits assumed); test: ELISA binning, competitor Ibalizumab; 100 ng/mL huCD4-HIS, anti-HIS HRP detection; background 45, max binding 3000000
T3 construct: Named only in the head of the Ibalizumab ELISA binning column; Neither the source nor the construct limits are told in this stretch; not shown: HIS tag

Row | Ibalizumab ELISA binning signal | Binder
63 | 869000 | B1
64 | 1.58e+06 | B2
65 | 2260 | B3
66 | 1.42e+06 | B4
67 | 1.7e+06 | B5
68 | 293000 | B6
69 | 385000 | B7

biological target: T1, human CD4 on cells (SKW3 cells; human …); test: FACS binning on SKW3 cells after supernatant; competitor OKT4a, anti-hu A647 secondary; background 5000, max binding 35000

Row | OKT4a anti-hu A647 signal (FACS binning) | Binder
70 | 36000 | B1
71 | 40100 | B2
72 | 14300 | B3
73 | 29900 | B4
74 | 38900 | B5
75 | 34100 | B6
76 | 37200 | B7

biological target: T4, Recombinant human CD4 (R&D Systems, Cat. 10327-CD) (human, UniProt P01730 26-390, limits assumed); test: BLI (Octet Red384); purified antibody captured on anti-mouse IgG Fc (AMC) sensors; human CD4 as analyte at 100, 50 and 25 nM; 1:1 global fit
T4 construct: Bought recombinant protein; also called huCD4

Row | Kd [nM] | koff [s⁻¹] | kon [M⁻¹ s⁻¹] | Binder
77 | < 0.001 | < 1e-07 | 95000 | B14
78 | 0.33 | 3.2e-05 | 96000 | B15
